From the supplement of paper PMC9170038 come the findings set out here.

The data set relates to MS2 coat protein. The data set can be described thus: apparent KD of MS2 coat protein; designed switch direction (-1 OFF switch, 1 ON switch): 1; higher = weaker reporter binding. A digest of the protocol:
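Designed RNA switches sharing common flanks were transcribed on Illumina chips by stalled E. coli RNA polymerase. They were titrated with SNAP-549-labelled MS2 coat protein, from 0.7 or 1.5 nM doubling to 3 µM, in Tris-HCl pH 7.5 buffer with KCl, MgCl2, BSA, DTT, tRNA and Tween-20. Titrations ran without input, with 200 uM small-molecule ligand, or with an oligonucleotide input. The apparent KD of each design is the median over its clusters, after curve-fitting of normalised cluster fluorescence.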

Setting [1] is: input ligand: microRNA oligo, concentration not stated.
[2] abbreviates: Eterna round: R95, input ligand: FMN 200 uM.
[3] abbreviates: Eterna round: R95, input ligand: microRNA oligo, concentration not stated.
Where [4] appears, read: Eterna round: R95, input ligand: none.

Take “UACAAUCUAUCUGAGGAUAUCAUGAAAAAAACAUGAGGAUCACCCAUGUGCAGGAAAACUGCAUAUGAGAAGGCAGAUAGAUUGU [salish99_SS2_r3_006] (Eterna round: R96, puzzle: Same State 2)”: the “apparent KD of MS2 coat protein” value under setting [1] was 585 nM.
Regarding “UACAAUCUAUCUGAGGAUAUCAUGAAAAAAACAUGAGGAUCACCCAUGUGCAGGAAAACUGCAUAUGAGAAGGCAGAUAGAUUGU [salish99_SS2_r3_006] (puzzle: Same State 2)”, the “apparent KD of MS2 coat protein” value under setting [2] is 32.4 nM, the “apparent KD of MS2 coat protein” value under setting [3] is 971 nM and the “apparent KD of MS2 coat protein” value under setting [4] is 1650 nM.
On the same counts, the results for “UACAAUCUAUCUGAGGAUAUCAUGAAAUAAACAUGAGGAUCACCCAUGUGCAGGAAAACUGCAUAUGAGAAGGCAGAUAGAUUGA [salish99_ss2_r3_018] (puzzle: Same State 2)” are 50.2 nM, 1130 nM and 1810 nM.
The matching figures for “UACAAUCUAUCUGAGGAUAUCAUGAAGAAAACAUGAGGAUCACCCAUGUGCAGGAUAACUGCAAAUGAGAAGGCAGAUAGAUUGG [Mat - Same State 2 - Mod - D4] (puzzle: Same State 2)”: 12.9 nM, 17 nM and 24.6 nM.
The matching figures for “UACAAUCUAUCUGAGGAUAUCAUGAAUUACACAUGAGGAUCACCCAUGUGCAGGAAAACUGCAUAUGAGAAGGCAGAUAGAUUGU [salish99_ss2_r3_065] (puzzle: Same State 2)”: 81 nM, 1060 nM and 1970 nM.
As to “UACAAUCUAUCUGAGGAUAUCAUGAUUCUAACAUGAGGAUCACCCAUGUGCAGGAAAACUGCAUAUGAGAAGGCAGAUAGAUUGU [salish99_ss2_r3_072] (puzzle: Same State 2)”, the “apparent KD of MS2 coat protein” value runs as follows: under setting [2], 67.7 nM; under setting [3], 33.3 nM; under setting [4], 148 nM.
On the same counts, the results for “UACAAUCUAUCUGAGGAUAUCAUGUAUUAAACAUGAGGAUCACCCAUGUGCAGGAAAACUGCAUAUGAGAAGGCAGAUAGAUUGU [salish99_ss2_r3_064] (puzzle: Same State 2)” are 428 nM, 41.9 nM and 168 nM.
As for “UACAUACGCGGAGGAUAUGGGCGAGGCGCAGAGGUCUGCGUCAAAACAUGAGGAUCACCCAUGUCCCAGAAGGCCGCGUAAACU [Enisen] (Eterna round: R96, puzzle: Same State NG 2)”, the “apparent KD of MS2 coat protein” value (input ligand: FMN 200 uM) turned out to be 15.7 nM, the “apparent KD of MS2 coat protein” value under setting [1] was 51.3 nM and the “apparent KD of MS2 coat protein” value (input ligand: none) came to 73.4 nM.
On to “UACCAACAUAUAGAACAAGCGUGCUCGUCACAUGAGGAUCACCCAUGUCUAAGCGCUGAACCUGCAUCCUCAGCGCC [Oniste] (puzzle: Sensor for hsa-mir-208a)”, for which the “apparent KD of MS2 coat protein” value worked out at 78.5 nM under setting [2], 26.5 nM under setting [3] and 85.9 nM under setting [4].
Consider “UAGACAAGCUUUAUGUUCUUCCUUUUCCUACAUGAGGAUCACCCAUGUAGUCUGUCGAUUGUGAGUGUAGUUGAGAU [JR_SHM208A_Sub025] (puzzle: Sensor for hsa-mir-208a)”, for which the “apparent KD of MS2 coat protein” value turned out to be 18.7 nM under setting [2], 16 nM under setting [3] and 18.7 nM under setting [4].
Consider “UAGAGAGGAAGCGAGGAUAUCGUGGGAGGGACAUGAGGAUCACCCAUGUAUGAUGUUGAGAGGAACGAGAAGGCGCAGGAAAGUA [JR_SS2_Sub077] (puzzle: Same State 2)”, for which the “apparent KD of MS2 coat protein” value is, setting by setting: under setting [2], 151 nM; under setting [3], 137 nM; under setting [4], 349 nM.
The matching figures for “UAGAGAGGAAGCGAGGAUAUCGUGUUAGGUACAUGAGGAUCACCCAUGUUUUAGGUAGAGGUAGGCGAGAAGGCGCAGGAGAGGA [JR_SS2_Sub091] (puzzle: Same State 2)”: 24.9 nM, 29.2 nM and 24.4 nM.
Consider “UAGGAACAUGAGGAUCACCCAUGUACCUCAUAUGGAGAAACACAGGAUAUACUUAGCGAAAGAGAGUAGAAGGGUGAAGAGAGG [Default title] (Eterna round: R96, puzzle: Same State NG 3)”, for which the “apparent KD of MS2 coat protein” value is, setting by setting: (input ligand: FMN 200 uM) 19.4 nM; under setting [1], 30.8 nM; (input ligand: none) 32.6 nM.
The matching figures for “UAGGAACAUGAGGAUCACCCAUGUACCUCAUAUGGAGAAACACAGGAUAUGCUGAGGGAAACACAGCAGAAGGGUGAAGAGAGG [Default title] (Eterna round: R96, puzzle: Same State NG 3)”: 22.7 nM, 27.1 nM and 32.8 nM.
The matching figures for “UAGGAGAGUAGAACAUGAGGAUCACCCAUGUAACCUCAUGUAUAGGAUAUGUUAAGAGUAGUAGAACAGAAGGAUAAGUAGGAU [Default title] (Eterna round: R96, puzzle: Same State NG 3)”: 694 nM, 494 nM and 655 nM.
For the sequence “UAGUACAAGCUUUUUGCCCGUCUUAUUUAACAUGAGGAUCACCCAUGUAAGGUGAAAGUUAGAGAGUGGAGGUUGAA [JR_SHM208A_Sub049] (puzzle: Sensor for hsa-mir-208a)”, the “apparent KD of MS2 coat protein” value reads like this: under setting [2], 205 nM; under setting [3], 227 nM; under setting [4], 249 nM.
The matching figures for “UAGUACAUGCUUUUUGUCCGUCUUAGAUAACAUGAGGAUCACCCAUGUAAGGUGAAAGUUAUAUAGUUUAGGAAUAU [JR_SHM208A_Sub057] (puzzle: Sensor for hsa-mir-208a)”: 136 nM, 323 nM and 178 nM.
The matching figures for “UAGUACAUGCUUUUUGUCUGUCUUAGAUCACAUGAGGAUCACCCAUGUUUGGUGAAAGUUAUAUAGUUUAUGACUAU [JR_SHM208A_Sub059] (puzzle: Sensor for hsa-mir-208a)”: 114 nM, 96.8 nM and 162 nM.
With “UAGUGAUUGCAAGGAUAUGCUAGUUUUUAUUUGUGUUUGAUAACAAACAUGAGGAUCACCCAUGUGCAGAAGGUGCAAGAUAUG [JR_SSNG2_Sub078] (Eterna round: R96, puzzle: Same State NG 2)”, the “apparent KD of MS2 coat protein” value (input ligand: FMN 200 uM) turned out to be 193 nM, the “apparent KD of MS2 coat protein” value under setting [1] turned out to be 361 nM and the “apparent KD of MS2 coat protein” value (input ligand: none) worked out at 647 nM.
For “UAGUGAUUGCAAGGAUAUGCUUGUGUUUUAUUUUUUUUAAUAUCUAACAUGAGGAUCACCCAUGUGCAGAAGGUGCUUGAUUUG [JR_SSNG2_Sub076] (Eterna round: R96, puzzle: Same State NG 2)”, under setting [1], the “apparent KD of MS2 coat protein” value came out at 46.5 nM.
On to “UAGUGCAUUAGAGGAUAUUCUUACGGAAACGGUAAGACAUGAGGAUCACCCAUGUUGUCACAUGGGAAGAAGGCUGAUGUGCUA [Omei SS(NG)2 Bv5] (Eterna round: R96, puzzle: Same State NG 2)”, for which the “apparent KD of MS2 coat protein” value reads like this: (input ligand: FMN 200 uM) 82.6 nM; under setting [1], 104 nM; (input ligand: none) 510 nM.
For “UAUGAACAUGAGGAUCACCCAUGUGGAAAAGACACAGGAUAUCAUCCCGGACGUGCGAGAUGAGAAGGGUGAUGGU [Edrive] (puzzle: Same State 1)”, the “apparent KD of MS2 coat protein” value under setting [2] stood at 267 nM, the “apparent KD of MS2 coat protein” value under setting [3] is 205 nM and the “apparent KD of MS2 coat protein” value under setting [4] turned out to be 367 nM.
On to “UAUGAACAUGAGGAUCACCCAUGUGGUAAGAUCACAGGAUAUCACCUCGGACGUGCGAUGUGAGAAGGGUGAUGGU [Same State 1 - Mod of Vinnie Anrelari v.2] (puzzle: Same State 1)”, for which, under setting [3], the “apparent KD of MS2 coat protein” value amounted to 419 nM.
For “UAUGAAUUGCAAGGAUAUUGAUAACAUGAGGAUCACCCAUGUAAUUGAUCGAGUUAGAUCAGUUACAAGAAGGUGCUAUUGUUU [JR_SSNG2_Sub037] (Eterna round: R96, puzzle: Same State NG 2)”, the “apparent KD of MS2 coat protein” value was 1810 nM (input ligand: FMN 200 uM), 33.2 nM under setting [1] and 70 nM (input ligand: none).
On to “UAUGACUUACAAGGAUAUUAAUAACAUGAGGAUCACCCAUGUGGCUGUGUGUGUUAGAUAAGCUAUAAGAAGGUGUGUGUGUUU [JR_SSNG2_Sub095] (Eterna round: R96, puzzle: Same State NG 2)”, for which the “apparent KD of MS2 coat protein” value by setting is: (input ligand: FMN 200 uM) 66.2 nM; under setting [1], 244 nM; (input ligand: none) 223 nM.
Regarding “UAUGAUGCCGUAGGAUAUCUAGGAUAUGGACGAGGAUCACCCGAGCAGCAUCAGCGCACCAGAGGAGAGAAGGACGCUUUGGAA [pwkr ssNG2 2F5 2FMN.22] (Eterna round: R96, puzzle: Same State NG 2)”, the “apparent KD of MS2 coat protein” value (input ligand: FMN 200 uM) was 477 nM, the “apparent KD of MS2 coat protein” value under setting [1] was found to be 658 nM and the “apparent KD of MS2 coat protein” value (input ligand: none) worked out at 486 nM.
The matching figures for “UAUUAAUCUGUAGGAUAUGUAGGAUAUGGACGAGGAUCACCCGAGCAGCAUCAGCGCACCAGAGGACAGAAGGACGGCCGGGUG [pwkr ssNG2 2F5 2FMN.24] (Eterna round: R96, puzzle: Same State NG 2)”: 1670 nM, 411 nM and 177 nM.
Turning to “UAUUUAAUCAUAGGAUAUAGUGUGUAAUUUGGACUAGAAGGAUGAAACAUGAGGAUCACCCAUGUGGUAAAUGGGAUACAUUCC [JR_SSNG1_Sub100] (Eterna round: R96, puzzle: Same State NG 1)”, the “apparent KD of MS2 coat protein” value under setting [1] came out at 59.8 nM.
Consider “UCAAGCGAAAGGCUCGUCUUAUGCAAGAAACAUGAGGAUCACCCAUGUGAGGGACGAUUGAGUUAGAUGGAAUGGAA [JR_SHM208A_Sub031] (puzzle: Sensor for hsa-mir-208a)”, for which the “apparent KD of MS2 coat protein” value by setting is: under setting [2], 24.7 nM; under setting [3], 66.6 nM; under setting [4], 25 nM.
